B1: CTA2/CTB5 complex (complex)
chain 1: MSNTCDEKTQSLGVKFLDEYQSKVKRQIFSGYQSDIDTHNRIKDEL
chain 2: TPQNITDLCAEYHNTQIYTLNDKIFSYTESLAGKREMAIITFKNGAIFQVEVPGSQHIDSQKKAIERMKDTLRIAYLTEAKVEKLCVWNNKTPHAIAAISMAN
notes: copies: + 5

Experiments:
[1] = target: cholera toxin A2 CTA2 (Vibrio cholerae) (UniProt P01555); assay: SPR; conditions: cited from earlier work
[2] = target: cholera toxin A1 subunit (CTA1), reduced, free (UniProt P01555 19-212); assay: SPR; conditions: both partners purified
cholera toxin A1 subunit (CTA1), reduced, free, sequence (P01555 19-212): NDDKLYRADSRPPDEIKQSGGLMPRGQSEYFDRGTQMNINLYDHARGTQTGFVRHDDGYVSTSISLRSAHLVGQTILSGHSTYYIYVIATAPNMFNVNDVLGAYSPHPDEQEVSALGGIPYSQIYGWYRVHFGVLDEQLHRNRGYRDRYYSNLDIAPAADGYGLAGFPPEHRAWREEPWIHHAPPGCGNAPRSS

Row | Molecule | Kd [1] [nM] | kon [2] [M⁻¹ s⁻¹]
1 | cholera toxin A1 CTA1 (from UniProt P01555) | 53 | –
2 | B1 | – | 521

From PMC4516936 (Toxins, 2015)
